Measurements: US20250339531A1, “DUX4 POLYPEPTIDES AND NUCLEIC ACIDS FOR TREATING INFLAMMATORY AND AUTOIMMUNE CONDITIONS” (Fred Hutchinson Cancer Center, priority 2021, published 2025)

B1: CAPRIN1 (protein)
chain: PSATSHSGSGSKSSGPPPPSGSSGSEAAAGAGAAAPASQHPATGTGAVQTEAMKQILGVIDKKLRNLEKKKGKLDDYQERMNKGERLNQDQLDAVSKYQEVTNNLEFAKELQRSFMALSQDIQKTIKKTARREQLMREEAEQKRLKTVLELQYVLDKLGDDEVRTDLKQGLNGVPILSEEELSLLDEFYKLVDPERDMSLRLNEQYEHASIHLWDLLEGKEKPVCGTTYKVLKEIVERVFQSNYFDSTHNHQNGLCEEEEAASAPAVEDQVPEAEPEPAEEYTEQSEVESTEYVNRQFMAETQFTSGEKEQVDEWTVETVEVVNSLQQQPQAASPSVPEPHSLTPVAQADPLVRRQRVQDLMAQMQGPYNFIQDSMLDFENQTLDPAIVSAQPMNPTQNMDMPQLVCPPVHSESRLAQPNQVPVQPEATQVPLVSSTSEGYTASQPLYQPSHATEQRPQKEPIDQIQATISLNTDQTTASSSLPAASQPQVFQAGTSKPLHSSGINVNAAPFQSMQTVFNMNAPVPPVNEPETLKQQNQYQASYNQSFSSQPHQVEQTELQQEQLQTVVGTYHGSPDQSHQVTGNHQQPPQQNTGFPRSNQPYYNSRGVSRGGSRGARGLMNGYRGPANGFRGGYDGYRPSFSNTPNSGYTQSQFSAPRDYSGYQRDGYQQNFKRGSGQSGPRGAPRGRGGPPRPNRGMPQMNTQQVN
B2: P04843 (protein, UniProt P04843 1-607, looked up)
chain: MEAPAAGLFLLLLLGTWAPAPGSASSEAPPLINEDVKRTVDLSSHLAKVTAEVVLAHLGGGSTSRATSFLLALEPELEARLAHLGVQVKGEDEEENNLEVRETKIKGKSGRFFTVKLPVALDPGAKISVIVETVYTHVLHPYPTQITQSEKQFVVFEGNHYFYSPYPTKTQTMRVKLASRNVESYTKLGNPTRSEDLLDYGPFRDVPAYSQDTFKVHYENNSPFLTITSMTRVIEVSHWGNIAVEENVDLKHTGAVLKGPFSRYDYQRQPDSGISSIRSFKTILPAAAQDVYYRDEIGNVSTSHLLILDDSVEMEIRPRFPLFGGWKTHYIVGYNLPSYEYLYNLGDQYALKMRFVDHVFDEQVIDSLTVKIILPEGAKNIEIDSPYEISRAPDELHYTYLDTFGRPVIVAYKKNLVEQHIQDIVVHYTFNKVLMLQEPLLVVAAFYILFFTVIIYVRLDFSITKDPAAEARMKVACITEQVLTLVNKRIGLYRHFDETVNRYKQSRDISTLNSGKKSLETEHKALTSEIALLQSRLKTEGSDLCDRVSEMQKLDAQVKELVLKSAVEAERLVAGKLKKDTYIENEKLISGKRQELVTKIDHILDAL
modifications: full-length
B3: Q12797 (protein, UniProt Q12797 1-758, looked up)
chain: MAQRKNAKSSGNSSSSGSGSGSTSAGSSSPGARRETKHGGHKNGRKGGLSGTSFFTWFMVIALLGVWTSVAVVWFDLVDYEEVLGKLGIYDADGDGDFDVDDAKVLLGLKERSTSEPAVPPEEAEPHTEPEEQVPVEAEPQNIEDEAKEQIQSLLHEMVHAEHVEGEDLQQEDGPTGEPQQEDDEFLMATDVDDRFETLEPEVSHEETEHSYHVEETVSQDCNQDMEEMMSEQENPDSSEPVVEDERLHHDTDDVTYQVYEEQAVYEPLENEGIEITEVTAPPEDNPVEDSQVIVEEVSIFPVEEQQEVPPETNRKTDDPEQKAKVKKKKPKLLNKFDKTIKAELDAAEKLRKRGKIEEAVNAFKELVRKYPQSPRARYGKAQCEDDLAEKRRSNEVLRGAIETYQEVASLPDVPADLLKLSLKRRSDRQQFLGHMRGSLLTLQRLVQLFPNDTSLKNDLGVGYLLIGDNDNAKKVYEEVLSVTPNDGFAKVHYGFILKAQNKIAESIPYLKEGIESGDPGTDDGRFYFHLGDAMQRVGNKEAYKWYELGHKRGHFASVWQRSLYNVNGLKAQPWWTPKETGYTELVKSLERNWKLIRDEGLAVMDKAKGLFLPEDENLREKGDWSQFTLWQQGRRNENACKGAPKTCTLLEKFPETTGCRRGQIKYSIMHPGTHVWPHTGPTNCRLRMHLGLVIPKEGCKIRCANETKTWEEGKVLIFDDSFEHEVWQDASSFRLIFIVDVWHPELTPQQRRSLPAI
modifications: full-length
B4: TRIM28 (protein)
chain: AASAAAASAAAASAASGSPGPGEGSAGGEKRSTAPSAAASASASAAASSPAGGGAEALELLEHCGVCRERLRPEREPRLLPCLHSACSACLGPAAPAAANSSGDGGAAGDGTVVDCPVCKQQCFSKDIVENYFMRDSGSKAATDAQDANQCCTSCEDNAPATSYCVECSEPLCETCVEAHQRVKYTKDHTVRSTGPAKSRDGERTVYCNVHKHEPLVLFCESCDTLTCRDCQLNAHKDHQYQFLEDAVRNQRKLLASLVKRLGDKHATLQKSTKEVRSSIRQVSDVQKRVQVDVKMAILQIMKELNKRGRVLVNDAQKVTEGQQERLERQHWTMTKIQKHQEHILRFASWALESDNNTALLLSKKLIYFQLHRALKMIVDPVEPHGEMKFQWDLNAWTKSAEAFGKIVAERPGTNSTGPAPMAPPRAPGPLSKQGSGSSQPMEVQEGYGFGSGDDPYSSAEPHVSGVKRSRSGEGEVSGLMRKVPRVSLERLDLDLTADSQPPVFKVFPGSTTEDYNLIVIERGAAAAATGQPGTAPAGTPGAPPLAGMAIVKEEETEAAIGAPPTATEGPETKPVLMALAEGPGAEGPRLASPSGSTSSGLEVVAPEGTSAPGGGPGTLDDSATICRVCQKPGDLVMCNQCEFCFHLDCHLPALQDVPGEEWSCSLCHVLPDLKEEDGSLSLDGADSTGVVAKLSPANQRKCERVLLALFCHEPCRPLHQLATDSTFSLDQPGGTLDLTLIRARLQEKLSPPYSSPQEFAQDVGRMFKQFNKLTEDKADVQSIIGLQRFFETRMNEAFGDTKFSAVLVEPPPMSLPGAGLSSQELSGGPGDGP
B5: P50454 (protein, UniProt P50454 1-418, looked up)
chain: MRSLLLLSAFCLLEAALAAEVKKPAAAAAPGTAEKLSPKAATLAERSAGLAFSLYQAMAKDQAVENILVSPVVVASSLGLVSLGGKATTASQAKAVLSAEQLRDEEVHAGLGELLRSLSNSTARNVTWKLGSRLYGPSSVSFADDFVRSSKQHYNCEHSKINFRDKRSALQSINEWAAQTTDGKLPEVTKDVERTDGALLVNAMFFKPHWDEKFHHKMVDNRGFMVTRSYTVGVMMMHRTGLYNYYDDEKEKLQIVEMPLAHKLSSLIILMPHHVEPLERLEKLLTKEQLKIWMGKMQKKAVAISLPKGVVEVTHDLQKHLAGLGLTEAIDKNKADLSRMSGKKDLYLASVFHATAFELDTDGNPFDQDIYGREELRSPKLFYADHPFIFLVRDTQSGSLLFIGRLVRPKGDKMRDEL
modifications: full-length
B6: P13674 (protein, UniProt P13674 1-534, looked up)
chain: MIWYILIIGILLPQSLAHPGFFTSIGQMTDLIHTEKDLVTSLKDYIKAEEDKLEQIKKWAEKLDRLTSTATKDPEGFVGHPVNAFKLMKRLNTEWSELENLVLKDMSDGFISNLTIQRQYFPNDEDQVGAAKALLRLQDTYNLDTDTISKGNLPGVKHKSFLTAEDCFELGKVAYTEADYYHTELWMEQALRQLDEGEISTIDKVSVLDYLSYAVYQQGDLDKALLLTKKLLELDPEHQRANGNLKYFEYIMAKEKDVNKSASDDQSDQKTTPKKKGVAVDYLPERQKYEMLCRGEGIKMTPRRQKKLFCRYHDGNRNPKFILAPAKQEDEWDKPRIIRFHDIISDAEIEIVKDLAKPRLRRATISNPITGDLETVHYRISKSAWLSGYENPVVSRINMRIQDLTGLDVSTAEELQVANYGVGGQYEPHFDFARKDEPDAFKELGTGNRIATWLFYMSDVSAGGATVFPEVGASVWPKKGTAVFWYNLFASGEGDYSTRHAACPVLVGNKWVSNKWLHERGQEFRRPCTLSELE
modifications: full-length
B7: RNH1 (protein)
chain: SLDIQSLDIQCEELSDARWAELLPLLQQCQVVRLDDCGLTEARCKDISSALRVNPALAELNLRSNELGDVGVHCVLQGLQTPSCKIQKLSLQNCCLTGAGCGVLSSTLRTLPTLQELHLSDNLLGDAGLQLLCEGLLDPQCRLEKLQLEYCSLSAASCEPLASVLRAKPDFKELTVSNNDINEAGVRVLCQGLKDSPCQLEALKLESCGVTSDNCRDLCGIVASKASLRELALGSNKLGDVGMAELCPGLLHPSSRLRTLWIWECGITAKGCGDLCRVLRAKESLKELSLAGNELGDEGARLLCETLLEPGCQLESLWVKSCSFTAACCSHFSSVLAQNRFLLELQISNNRLEDAGVRELCQGLGQPGSVLRVLWLADCDVSDSSCSSLAATLLANHSLRELDLSNNCLGDAGILQLVESVRQPGCLLEQLVLYDIYWSEEMEDRLQALEKDKPSLRVIS
B8: KANK2 (protein)
chain: MAQVLHVPAPFPGTPGPASPPAFPAKDPDPPYSVETPYGYRLDLDFLKYVDDIEKGHTLRRVAVQRRPRLSSLPRGPGSWWTSTESLCSNASGDSRHSAYSYCGRGFYPQYGALETRGGFNPRVERTLLDARRRLEDQAATPTGLGSLTPSAAGSTASLVGVGLPPPTPRSSGLSTPVPPSAGHLAHVREQMAGALRKLRQLEEQVKLIPVLQVKLSVLQEEKRQLTVQLKSQKFLGHPTAGRGRSELCLDLPDPPEDPVALETRSVGTWVRERDLGMPDGEAALAAKVAVLETQLKKALQELQAAQARQADPQPQAWPPPDSPVRVDTVRVVEGPREVEVVASTAAGAPAQRAQSLEPYGTGLRALAMPGRPESPPVFRSQEVVETMCPVPAAATSNVHMVKKISITERSCDGAAGLPEVPAESSSSPPGSEVASLTQPEKSTGRVPTQEPTHREPTRQAASQESEEAGGTGGPPAGVRSIMKRKEEVADPTAHRRSLQFVGVNGGYESSSEDSSTAENISDNDSTENEAPEPRERVPSVAEAPQLRPAGTAAAKTSRQECQLSRESQHIPTAEGASGSNTEEEIRMELSPDLISACLALEKYLDNPNALTERELKVAYTTVLQEWLRLACRSDAHPELVRRHLVTFRAMSARLLDYVVNIADSNGNTALHYSVSHANFPVVQQLLDSGVCKVDKQNRAGYSPIMLTALATLKTQDDIETVLQLFRLGNINAKASQAGQTALMLAVSHGRVDVVKALLACEADVNVQDDDGSTALMCACEHGHKEIAGLLLAVPSCDISLTDRDGSTALMVALDAGQSEIASMLYSRMNIKCSFAPMSDDESPTSSSAEE

System: proteins that co-immunoprecipitated with DUX4-CTD constructs expressed in MB135 myoblasts
Assay: LC-MS of proteins co-immunoprecipitated with DUX4-CTD (Table 1) and western validation
Assay type: binding, human
Design: key to 4. mL1dL2 + Dox + IFNG / 4. + IFNG mix / 4. longCTD + Dox + IFNG / 3. + IFNg + Dox longCTD / 3. + Dox longCTD / 3. + IFNG longCTD: peptide-spectrum matches (PSMs) per protein
Conditions: for 4. mL1dL2 + Dox + IFNG: LC-MS value per protein co-immunoprecipitated with DUX4-CTD construct mL1dL2 in MB135 myoblasts; for 4. longCTD + Dox + IFNG: LC-MS counts of the listed protein co-immunoprecipitated with DUX4-CTD bait longCTD, experiment 4, Dox + IFNG; for 3. + Dox longCTD: experiment 3, Dox only; for 3. + IFNg + Dox longCTD: experiment 3, IFNg + Dox; for SUM of PSMS: sum over all samples
How it was run: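 FLAG-tagged DUX4-CTD expressed in doxycycline-induced MB135 myoblasts, some also IFNG-treated; nuclear lysates in pH 7.4 NP-40 IP buffer were pre-cleared, then anti-FLAG immunoprecipitated 3 h at 4 °C. For LC-MS, FLAG-peptide elution, in-gel trypsin digest, Orbitrap analysis; proteins with ≥2 PSMs in both experiments categorised and ranked by total PSMs.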

Molecule	4. mL1dL2 + Dox + IFNG (kind of count not given)	3. + Dox longCTD (bait longCTD)	3. + IFNg + Dox longCTD (bait longCTD)	SUM of PSMS	further results
B1	1	–	–	–	–
B2	–	4	14	30	4. longCTD + Dox + IFNG: 2; 3. + IFNG longCTD (bait longCTD, experiment 3, IFNG only, no doxycycline (bait at background level)): 1
B3	–	1	9	11	–
B4	8	–	–	–	4. + IFNG mix (LC-MS value per protein co-immunoprecipitated from MB135 myoblasts, + IFNG mix sample (no Dox), kind of count not given): 1
B5	–	–	1	11	–
B6	–	3	5	45	4. longCTD + Dox + IFNG: 9
B7	4	–	–	–	–
B8	1	–	–	–	–
